According to the DeepSol protein solubility set:

Test: soluble on expression in E. coli; label from the status in PepcDB or PDB records

| Sequence | soluble on expression in E. coli |
| --- | --- |
| MSKSALDPVEFLKGALEIPSPSGKERAVAEYLAEGMQKLGLKGFVDEADNARGQVGEGPVQVVLLGHIDTVPGQIPVRLEGGRLFGRGAVDAKGPFVAMIFAAAGLSEEARRRLTVHLVGATEEEAPSSKGARFVAPRLKPHYAVIGEPSGWEGITLGYKGRLLVKARREKDHFHSAHHEPNAAEELISYFVAIKAWAEAMNVGQRPFDQVQYTLRDFRVHPAELRQVAEMFFDLRLPPRLPPEEAIRHLTAYAPPTIELEFFGREVPYQGPKDTPLTRAFRQAIRKAGGRPVFKLKTGTSDMNVLAPHWPVPMVAYGPGDSTLDHTPYEHVEVAEFLKGIEVLRGALEALAQTHAGEKEG | soluble |
| MSKSGVPRLLTASERERLEPFIDQIHYSPRYADDEYEYRHVMLPKAMLKAIPTDYFNPETGTLRILQEEEWRGLGITQSLGWEMYEVHVPEPHILLFKREKDYQMKSQQRGG | soluble |
| MSKSWGKFIEEEEAEMASRRNLMIVDGTNLGFRFKHNNSKKPFASSYVSTIQSLAKSYSARTTIVLGDKGKSVFRLEHLPEYAGNRDEKYAQRTEEEKALDEQFFEYLKDAFELCKTTFPTFTIRGVEADDMAAYIVKLIGHLYDHVWLISTDGDWDTLLTDKVSRFSFTTRREYHLRDMYEHHNVDDVEQFISLKAIMGDLGDNIRGVEGIGAKRGYNIIREFGNVLDIIDQLPLPGKQKYIQNLNASEELLFRNLILVDLPTYCVDAIAAVGQDVLDKFTKDILEIAEQ | soluble |
| MSKTRIAFVGAGNMAASLIGGLRAQGVEASLICASAPGAETRERISTEHGIEVFADNAEAVKGADVVVLAVKPQMMKSVCQALKASLEAHQLIVSVAAGITCASLTQWLGDQPVVRCMPNTPSLLRQGASGLYATDKVSPTQREQAEQLLSAVGVAVWVEQEKHMDAVTAVSGSGPAYFFLMMEAMTAAGVKLGLPEDIAKKLTLQTALGSALIATGSNVDAGELRRRVASPGGTTEAAIKAFQAGGFEALVETALTAADHRAAELAEQLGKLEHHHHHH | not soluble |
| MSKVIIPKIVGHRGVGKEGLAPENTLRSFVLCMERNIPYIETDLRVCKTGEIVLFHGTPEGTIPFYKDGTSRIGDLSLEELKRLDVGGGHTIPSLEELFVAIEEQKFNLKLNLELKGEEWKRKESGDHQRLLLLVEKYHMQERVDYCSFHHEALAHLKALCPDVKITYLFNYMGQPTPLDFVEQTQKACYGDANGVSMLFHYLTKEQVCTAHEKGLSVTVWMPWIFDDSEEDWKKCLELQVDLICSNYPFGLMNFLSNISE | soluble |
| MSKYGCPTSDTDPNSVTMITKRGPVNKTLKSAAQLNAAQRAGVDISTEKKTMSGGNRQHSANKNTLRLDEETEELHHQKVALSLGKVMQQARATKGWTQKDLSTQINEKPQVVGEYESGKAVPNQQIMAKMERALGVKLRGKDIGMPFSTKPPAKK | not soluble |
| MSLAAEKLRLVADPWPPFTDALLLNGGLATDIVNTALKRAGYTTLYEQVPWARALLGLSEGRHDVLINAWFSEDRKKIGQFSAEYLLNRIRFIKRKESPIDALTHEQLHHYLIAVVRGYAYSPAFDSDVLLKKVPVQNFSTAVRMLAAERVDLTLEDEYVARYNLALEANEVRARVEFLPGSLSENSLHILVSLKNPHHAKIVADFDREIAAMKADGTYEELLRLHGLQGPPEEGHHHHHH | soluble |
| MSLADIYAFPTGESNDGRPVRPQGVPDEVWAAVESVSTMKRIHDVRYREIPVPSTLADYGIGVEFEAGERALGDAFSAGLGSDAEPRIATGWIMMLYAHELRIDWDSNWRCVAFARLPLETAENDSLTPGMYWDDMCDYFDGIEPDSVSGTVTVTQNTAFGSMAGSTSAGCEIRVSWTPLDGTGPDGTMDAGAQVRSWAAFIRSTIRFEEDDASEGHHHHHH | soluble |
| MSLAEIAYITAKADLPFWDTVGKGVKAVAEANGYAFSELDSKLSAEMQLNNVRQAIDRRVAGIVISPTNSKSAEEALILARRAKIPVAIADIGASGGDYVSFVKSDNYRGAYDVGTELAKAMKAQNWASGAYGMVTIELSRKNGQDRTNGFRDAMKDAGFPREIVLRQMKDYSAEETYRYVKEMLAAHPGLRGFFIETDQPVAGALRAIREAGKEKQLLLVSFDAMPDVVRLLKSGALVAVGMQQPYLMGSSAAGALVSRLRGHPPAKEILVPVLVATGRNVDQLMPVAARTVFGKPLKEGHHHHHH | soluble |
| MSLAEIRIRPLEVSALSRRLCIWADIVDASGVLLNSAPVWFDVSAMGEVWTPSTDAEKGTAVDVHPLKREFIDVAAAGIEPASRREIEGKEFSRRVESGQPITKDVLRAIPEIKNGDIVFVEVRVGTVFLRSRAEAMHDAYIGDRIKLKSVSSGETMLGVVLSAGRVWIGSEGHHHHHH | not soluble |
| MSLAEPDDDWLHVEGTNIVDKYGNKVWITGANWFGFNCRERMLLDSYHSDIIADIELVADKGINVVRMPIATDLLYAWSQGIYPPSTDTSYNNPALAGLNSYELFNFMLENFKRVGIKVILDVHSPETDNQGHNYPLWYNTTITEEIFKKAWVWVAERYKNDDTIIGFDLKNEPHTNTGTMKIKAQSAIWDDSNHPNNWKRVAEETALAILEVHPNVLIFVEGVEMYPKDGIWDDETFDTSPWTGNNDYYGNWWGGNLRGVKDYPINLGKYQSQLVYSPHDYGPIVYEQDWFKGDFITANDEQAKRILYEQCWRDNWAYIMEEGISPLLLGEWGGMTEGGHPLLDLNLKYLRCMRDFILENKYKLHHTFWCINIDSADTGGLFTRDEGTPFPGGRDLKWNDNKYDNYLYPVLWKTEEGHHHHHH | not soluble |
| MSLAETVLEKARAKNEIRIATSDSLKPWGYMDDTNKPIGFNLDVSREMGKRMGFGKVTFVTDSYKNFISGLNADRYDMVVAILTPTEERRKSADFSNPYMVVSKNIFVRDDNTSIRSLEDLAGKRLGVAAGTTDEAWARQHVKDAQIRVYDNFFLALQDLAIGRVDARITDRVTGMTAAKEGRFPVKIAGPDLSQDIGAIAYKKGQDDLAAIVNKVIQEMVDDGSLNEISRKWLAGIEMGEELKKLPKDAREGHHHHHH | soluble |
| MSLAFVPHVPRHSRGDNPPSASTASPAVLTLTGERTIPDLDIENYWFRRHQVVYQRLAPRCTARDVLEAGCGEGYGADLIACVARQVIAVDYDETAVAHVRSRYPRVEVMQANLAELPLPDASVDVVVNFQVIEHLWDQARFVRECARVLRGSGLLMVSTPNRITFSPGRDTPINPFHTRELNADELTSLLIDAGFVDVAMCGLFHGPRLRDMDARHGGSIIDAQIMRAVAGAPWPPELAADVAAVTTADFEMVAAGHDRDIDDSLDLIAIAVREGHHHHHH | soluble |
| MSLAILIVECMQEISSFNPVPSDYELFHIEEGEDLFQHRGRNTAIGGALSVLEATPGVTLIPTVAARADSAGILSAEGWARLSAQILDRVRAGVGGADAIYVSLHGAMGAVGEPDPEGWLLAQIRALAGPDRPIIISLDLHGILTERMIAQVDGIAVYHTYPHVDFADTGARAARLLLDRLTARRPASIVRAVIPALVRGDELITATGCYGDLIRECRRLEADGMVLAAGLMIGNPFTDAPELCSQVVLTTDDPLRGRAEAERLAAAFWALRHRMQGRLIGLSDAVAEARTLTGPVVFTDAADATSSGASGDSNAILRGLLAADYPGRVLAQIVDPQAAEAAHRAGVGAEIPVTLGGRMDPARFTPLEVTARVRLLSDGLTRLETMKTPLNAGRCAVLEFGTVTVVAMSLPAMLFDRAIYYANGLDPADFDLIVVKSPHTEHHMYDAWVTRNFNIDTPGSTSADLASLGHRICARPMFPLDPLTDFTPRATAHLRADRSEGHHHHHH | soluble |
| MSLAISQEQKQAIDQALTERLLHHPFYQEAKVIATYLSFSHEFQTRELIEQALKDGKKVLIPKTYPKGRMEFVAYDPQQLVKTSFALLEPQGDVEVVDASQIDLIHVPGLAFTTKGYRIGYGGGYYDRYLEHFSGRTLSTIYPCQIQDFIPENHDIPVQEVLIDEGNLEGHHHHHH | soluble |
| MSLAIVAKRTIMSLFSDVDDVYSHQVRIVLAEKGVNVEILAVKQDEPGADLLSINPYGTVPTLIDRELVLYEARIIMEYLDERFPHPPLLPVYPVARAEARKMMHRIEQDWYYLMNAILREESVEQARANLLESLTSLDPVFADKPYFLSDEFSLLDCALAPLLWRLPKLGLEIAPNFKGIISYMQRVFKRDSFQTSLTDAERQIRAAEGHHHHHH | soluble |
| MSLAKLNMNNEIKKVEQRLEKAIKSKDSVLEQASLHLLSSGGKRVRPAFVILSSQFGKDEQTSEQTYQVAVALELIHMATLVHDDVIDKSDKRRGKLTISKKWDQTTAILTGNFLLALGLEHLMAVKDNRVHQLISESIVDVCRGELFQFQDQFNSQQTIINYLRRINRKTALLIQISTEVGAITSQSDKETVRKLKMIGHYIGMSFQIIDDVLDFTSTEKKLGKPVGSDLLNGHITLPILLEMRKNPDFKLKIEQLRRDSERKEFEECIQIIRKSDSIDEAKAVSSKYLSKALNLISELPDGHPKSLLLSLTKKMGSRNTEGHHHHHH | soluble |
| MSLAKSVFYYHRCQFDVKDKYGDLKQRITELYHQHKGRYGYRRVTAALKQLDCHHNHKLIAKLMHDMKLSAKIRRQKYRSYKGQQGKIAKNYLKRQFHADKPNKRWLTDITEFKVGDDKLYLSPILDCYNNEIVSYTLSKRPTYDLVGKMLEDALAKTKACRDNKLMLHSDQGWHYQMRLFGQVLKQHGIKQSMSRKGNCLDNALMEGFFGTLKCETIYIEKPNSIEGLEKQIHEYIHYYNHERIQLKLKGLSPVKYRTQSLIEGHHHHHH | not soluble |
| MSLAKTIAYLRVSTSQQDLKNQKFEILDYAQKNGLSIDDFVEVEISSRKSVEERKIDYLVSMLSQGDRVIVSELSRIGRSTVEVLNIINELASKKVFLIAIKQNLNINGSENLQAKVMVTMFSLFAELERDLISDRTKRALEARKAAGVKLGRPKGATGVSKLDGMEGQITELLRKQVSLSSIAKIFSVSRGTVYSFIATRGLTAEGHHHHHH | not soluble |
| MSLALAVQNTDTIGVVVTDVTDAFFAILVKAVDKVAEAHQKTILIGIGYHHAEKEREAINTLLRKRCSSLVVHSKALSDDELSHYLNTVQGMVIINRVIKGYEHRCVSLDNQKGTYLATEMLIRYGHQHIAYIGSNHAIFDEVERRNGYLAALKDHNYLIIEQAITLNSPDFEGGEKAMIDLLSYNKNLTAVVAYNDSMAAGAISVLNENNISVPSQFSIIGFDDMPIARYLIPKLTTIRYPIDLMATYAAKLALSLTDEKIITPPVVQFNPTLVRRFSVESREGHHHHHH | soluble |
| MSLALSRIDGQDELFVGGLWALRRSDSLTDRRITHVLSLVPFDISSLKNFKDEPWIDYGKDFRHQLIDIDDVEDSDLLIELPKAVRFIEEGLGANYMEHADDDGGVSLEKDVDVVEKKRKKKGGVFVHCAVGKSRSVSAVIAYLLRRYPSRFDPNITPTAISDPSQSTGSETSAEKRSRKETAQEAVHAALTYVRRTRPMAEPNEGFMEQLALWWEMEEGHHHHHH | not soluble |
